Reference: US11124779B2, “Compositions and methods for treating and preventing pancreatitis, renal injury and cancer” (Yale University, priority 2014, dated 2021)
Entries after “also recorded” stand apart in the source; their conditions may differ.

Legend:
HK-2 cells = test: In vitro model of cisplatin toxicity: HK-2 cell survival by the WST-1 method; format: cell-based, human; conditions: 20 μM cisplatin, 24 hrs; test substance 80 μg/ml
Method: FIG. 1B is a graph depicting the effect of renalase peptides on survival of HK-2 cells exposed to 20 μM cisplatin for 24 hrs; cell survival is depicted as % change in survival compared to that in cisplatin-treated HK-2 cells without renalase peptides; cell survival was measured by the WST-1 method; RP-A220: mutated RP-220, and RP-19 and RP-128: control peptides; peptide concentration (μg/ml) indicated in top line; n=4, *=p<0.05. […]
HK-2 cells (human proximal tubular line) obtained from ATTC (Manassas, Va., USA) were cultured in DMEM/F12 supplemented with glutamine, 10% FBS and antibiotics, and were maintained at 37° C. in 5% CO2. Cells were exposed to cisplatin (20 μM) in the presence or absence of recombinant renalase or renalase peptides for 24 hrs, and cell viability was assessed by the WST1 method (Roche Applied Science, Germany).

isolated mouse acini [1] = test: Trypsin activity (zymogen activation) in isolated mouse pancreatic acini; format: cell-based
Method: (§1) FIGS. 9A-9E, depict the results of experiments that show recombinant exogenous renalase reduce zymogen activation and injury in vitro in mice. (FIG. 9A) Isolated WT mouse acini were pretreated for 30 minutes with recombinant renalase (25 μg/mL; 0.1 μM) and then treated with either (FIG. 9A, 9D, 9E) physiologic (0.1 nM) and supraphysiologic (100 nM) cerulein or (FIG. 9B) physiologic (1 μM) or supraphysiologic (1000 μM) carbachol for 30 minutes. Trypsin activity (FIGS. 9A-9C), MTT accumulation (FIG. 9D), and LDH release (FIG. 9E) were assayed using a fluorogenic substrate. For FIG. 9C, isolated acini from renalase ^−/^− mice were treated pretreated with recombinant renalase (25 μg/mL) and then treated with cerulein (0.1 nM or 100 nM) for 30 minutes. *p<0.05 vs. supraphysiologic cerulein or carbachol, # p<0.05 vs. WT, n=3, +/−SEM.
FIGS. 13A-13C, depict the results of experiments showing caloxin blocks the protective effects of renalase. Isolated WT mouse acini were pretreated for 30 minutes with caloxin 1b (100 μM) and/or recombinant renalase (25 μg/mL) and then treated with supraphysiologic (100 nM) cerulein (CER) and assayed for trypsin activity (FIG. 13A) or MTT conversion (FIG. 13B). *p<0.05 vs. CER, # p<0.05 vs. CER+renalase. WT, n=3, +/−SEM.
Next, it was assessed whether pretreatment with recombinant human renalase reduces injury in pancreatitis. This was first assessed in isolated groups of murine acinar cells (acini) that were exposed to supraphysiologic concentrations of cerulein and carbachol (which induces early acinar cell pancreatitis responses) in isolated WT mouse acini and acini isolated from renalase deficient mice in vitro (FIG. 9). The recombinant renalase reduced trypsinogen activation induced by either cerulein (FIG. 9A) or carbachol (FIG. 9B). […] Renalase had no effect on untreated acini or acini treated with physiologic stimulation.

isolated mouse acini [2] = test: Injury of isolated mouse pancreatic acini (MTT, LDH release, H&E histology); format: cell-based; conditions: WT mouse acini, renalase 25 μg/mL, cerulein
Method: as §1
FIGS. 13A-13C, depict the results of experiments showing caloxin blocks the protective effects of renalase. […]
Next, it was assessed whether pretreatment with recombinant human renalase reduces injury in pancreatitis. This was first assessed in isolated groups of murine acinar cells (acini) that were exposed to supraphysiologic concentrations of cerulein and carbachol (which induces early acinar cell pancreatitis responses) in isolated WT mouse acini and acini isolated from renalase deficient mice in vitro (FIG. 9). […]

WT mice = test: Cerulein-induced pancreatitis in vivo; parameters: species or system mouse; conditions: single IP dose 2 hours after initiating cerulein pancreatitis; sacrificed at hour 7
Method: FIGS. 10A-10G, depict the results of experiments showing that pretreatment with renalase peptide (RP-220) ameliorates cerulein-induced pancreatitis in vivo. WT mice were treated with 6 hourly IP injections of cerulein (CER, 40 mcg/kg). IP renalase peptide, RP-220 (renalase, 1.3 mg/kg) was given 1 hour before first cerulein injection. (FIG. 10A) Pancreatic trypsin activation measured with fluorogenic substrate, normalized to total protein. (FIG. 10B) Edema measured as % wet weight. (FIG. 10C) Apoptosis evaluated by TUNEL positive cells. (FIG. 10D) Neutrophils (Ly-6B) and (FIG. 10E) macrophages (F4/80) were quantified. Pancreas H&E sections (FIG. 10G) were evaluated for edema, pyknotic nucei, and vacuoles to derive morphological score (FIG. 10F). *p<0.05 vs. WT-CER, +/−SEM, n=5.
A single dose of renalase was given intraperitoneally (100 μg peptide/25 g body weight) 2 hours after inducing cerulein-pancreatitis. Six hourly injections IP of 50 μg/kg and animals were sacrificed at hour 7. Histologic pancreatitis severity was evaluated by two blinded reviewers. […] N=4 mice in each group.
To determine whether the protective of renalase observed in isolated acini was relevant in vivo, WT mice were pretreated (1 hour) with a single dose of the renalase peptide (RP-220) intraperitoneally (100 μg peptide/25 g body weight) prior to inducing cerulein-pancreatitis (6 hourly injections IP of 50 μg/kg). […]

PMCA [3] = molecular target: PMCA (Homo sapiens, UniProt P23634); test: Ca2+ efflux through PMCA, time lapse confocal microscopy, HK2 cells; format: cell-based
Sequence of PMCA (Homo sapiens, UniProt P23634) (P23634 1-1205 isoform P23634-6): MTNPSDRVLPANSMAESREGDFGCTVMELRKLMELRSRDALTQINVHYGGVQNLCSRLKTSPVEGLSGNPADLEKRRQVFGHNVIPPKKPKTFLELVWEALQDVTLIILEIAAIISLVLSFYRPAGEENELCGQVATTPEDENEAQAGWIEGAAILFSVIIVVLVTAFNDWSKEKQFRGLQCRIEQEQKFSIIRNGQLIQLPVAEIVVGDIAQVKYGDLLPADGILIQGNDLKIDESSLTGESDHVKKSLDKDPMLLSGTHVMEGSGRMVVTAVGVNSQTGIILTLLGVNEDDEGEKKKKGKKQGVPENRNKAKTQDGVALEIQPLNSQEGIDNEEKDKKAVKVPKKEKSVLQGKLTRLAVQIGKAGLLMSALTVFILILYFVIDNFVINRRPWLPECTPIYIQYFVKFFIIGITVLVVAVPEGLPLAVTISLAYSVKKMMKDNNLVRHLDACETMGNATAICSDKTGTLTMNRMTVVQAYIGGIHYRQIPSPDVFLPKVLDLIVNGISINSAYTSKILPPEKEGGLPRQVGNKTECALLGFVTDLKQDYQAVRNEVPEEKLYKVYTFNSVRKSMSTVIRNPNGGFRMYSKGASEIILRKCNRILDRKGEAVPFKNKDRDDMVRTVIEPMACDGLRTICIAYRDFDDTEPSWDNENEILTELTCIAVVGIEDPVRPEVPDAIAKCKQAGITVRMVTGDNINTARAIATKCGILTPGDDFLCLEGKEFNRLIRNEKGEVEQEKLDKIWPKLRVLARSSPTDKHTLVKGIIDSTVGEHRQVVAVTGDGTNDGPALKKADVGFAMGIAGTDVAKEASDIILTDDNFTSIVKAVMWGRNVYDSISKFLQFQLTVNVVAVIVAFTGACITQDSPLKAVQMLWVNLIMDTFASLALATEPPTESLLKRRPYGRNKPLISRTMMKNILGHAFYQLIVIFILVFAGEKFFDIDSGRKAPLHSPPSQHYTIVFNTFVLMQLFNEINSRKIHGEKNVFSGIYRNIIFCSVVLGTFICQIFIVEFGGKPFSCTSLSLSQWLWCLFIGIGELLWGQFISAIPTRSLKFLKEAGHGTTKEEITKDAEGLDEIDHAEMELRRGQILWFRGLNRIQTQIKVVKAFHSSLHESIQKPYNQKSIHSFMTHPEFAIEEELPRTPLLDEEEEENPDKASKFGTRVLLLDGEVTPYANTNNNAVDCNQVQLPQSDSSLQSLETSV
Method: (§2) FIGS. 12A-12F, depict the results of experiments showing renalase increases Ca^2+ efflux through PCMA. Changes in whole cell cytosolic Ca^2+ were recorded with the Ca^2+ dye Fluo-4 (HK2 cells) or Fluo-5 (acinar cell) by time lapse confocal microscopy. FIGS. 12A, 12B, 12D, and 12E are representative plots of fluorescence over time in HK2 cells (FIGS. 12A and 12B) or mouse acinar cells (FIGS. 12D and 12E). Cells were pretreated with 30 μM cyclopiazonic acid and perfused with Ca^2+-free medium. Cells were briefly stimulated with 10 nM angiotensin IV (Ang in HK2 cells) or 100 nM cerulein (Cer in acinar cells) in the presence of 1.3 mM Ca^2+. […] For FIGS. 12C and 12F, the rate of Ca^2+ efflux was quantified from 30 cells/treatment group. *p<0.05 vs. no renalase. […]
(§3) PMCA selectively binds renalase (FIG. 6). […] Since the protective effects of renalase were first characterized in HK-2 cells (human kidney cell line) (Lee et al., 2013, J Am Soc Nephrol 24, 445-455; Wang et al., 2014, Journal of the American Society of Nephrology: JASN), its effects on Ca^2+ signals were evaluated in these cells and subsequently in mouse acinar cells (FIG. 12). […] Perfusion buffer was then switched back to Ca^2+-free medium in the presence or absence of renalase, and cytosolic Ca^2+ levels were monitored over time and the rates of Ca^2+ efflux were calculated (FIG. 12). […]

PMCA [4] = molecular target: T1, PMCA (Mus musculus, UniProt Q6Q477); test: Ca2+ efflux through PMCA, time lapse confocal microscopy, mouse acinar cells; format: cell-based
T1 sequence (Q6Q477 1-1205): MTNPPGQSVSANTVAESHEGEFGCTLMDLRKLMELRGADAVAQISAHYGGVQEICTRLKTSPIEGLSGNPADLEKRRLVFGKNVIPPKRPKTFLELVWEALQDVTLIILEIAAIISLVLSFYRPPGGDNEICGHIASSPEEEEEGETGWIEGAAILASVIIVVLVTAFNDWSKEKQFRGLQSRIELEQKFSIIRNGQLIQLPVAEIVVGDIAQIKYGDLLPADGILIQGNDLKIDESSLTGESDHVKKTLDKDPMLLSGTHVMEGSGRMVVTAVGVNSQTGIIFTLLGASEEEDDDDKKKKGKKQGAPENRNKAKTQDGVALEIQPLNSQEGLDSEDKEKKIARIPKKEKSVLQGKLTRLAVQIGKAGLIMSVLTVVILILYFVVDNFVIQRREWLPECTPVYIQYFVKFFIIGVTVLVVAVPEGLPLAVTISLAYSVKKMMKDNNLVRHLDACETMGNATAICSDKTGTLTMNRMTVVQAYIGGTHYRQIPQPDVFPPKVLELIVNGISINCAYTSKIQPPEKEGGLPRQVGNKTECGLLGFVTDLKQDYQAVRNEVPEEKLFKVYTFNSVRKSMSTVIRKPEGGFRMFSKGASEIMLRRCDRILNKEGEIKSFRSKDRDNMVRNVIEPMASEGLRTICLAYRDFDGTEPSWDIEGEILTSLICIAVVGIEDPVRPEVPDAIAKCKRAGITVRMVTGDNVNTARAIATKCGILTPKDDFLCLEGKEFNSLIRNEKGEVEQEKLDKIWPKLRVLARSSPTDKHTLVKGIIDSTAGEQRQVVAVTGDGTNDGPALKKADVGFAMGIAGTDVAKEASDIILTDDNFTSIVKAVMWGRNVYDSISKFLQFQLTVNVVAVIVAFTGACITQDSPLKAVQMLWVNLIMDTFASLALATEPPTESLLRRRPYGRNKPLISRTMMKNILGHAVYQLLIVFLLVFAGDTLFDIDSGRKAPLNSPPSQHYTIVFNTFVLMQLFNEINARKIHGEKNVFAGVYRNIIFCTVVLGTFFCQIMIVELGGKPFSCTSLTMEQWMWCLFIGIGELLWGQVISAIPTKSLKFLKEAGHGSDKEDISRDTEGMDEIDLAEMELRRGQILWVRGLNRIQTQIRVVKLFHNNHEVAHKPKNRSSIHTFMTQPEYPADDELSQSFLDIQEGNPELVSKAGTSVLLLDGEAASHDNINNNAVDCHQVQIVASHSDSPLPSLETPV
Method: as §2, §3

p38 MAPK = conditions: HK-2 cell, treatment alone; Wang et al., 2014; cited from earlier work
ERK = conditions: HK-2 cell, treatment alone; Wang et al., 2014; cited from earlier work
mice = conditions: literature (Lee et al., 2013; Wang et al., 2014); cited from earlier work
renalase KO mice = conditions: Wang et al., 2014; cited from earlier work
[5] = cited from earlier work

B1: recombinant renalase: recombinant full-length human renalase, secretory flavoprotein oxidase; synthesized as in Desir et al., 2012; SEQ ID NO: 8 or 9 (protein)
chain: ALLRRQTSGPLYLAVWDKAEDSGGRMTTACSPHNPQCTADLGAQYITCTPHYAKKHQRFYDELLAYGVLRPLSSPIEGMVMKEGDCNFVAPQGISSIIKHYLKESGAEVYFRHRVTQINLRDDKWEVSKQTGSPEQFDLIVLTMPVPEILQLQGDITTLISECQRQQLEAVSYSSRYALGLFYEAGTKIDVPWAGQYITSNPCIRFVSIDNKKRNIESSEIGPSLVIHTTVPFGVTYLEHSIEDVQELVFQQLENILPGLPQPIATKCQKWRHSQVTNAAANCPGQMTLHHKPFLACGGDGFTQSNFDGCITSALCVLEALKNYI
HK-2 cells
  survival of HK-2 cells exposed to cisplatin (protective effect): protected HK-2 cells to a similar degree
Isolated mouse acini [1]; WT mouse acini, renalase 25 μg/mL 30 minutes pretreatment, supraphysiologic (100 nM) cerulein
  trypsinogen activation induced by cerulein: reduced
Isolated mouse acini [1]; WT mouse acini, renalase 25 μg/mL 30 minutes pretreatment, supraphysiologic (1000 μM) carbachol
  trypsinogen activation induced by carbachol: reduced
Isolated mouse acini [1]; no stimulation
  effect on untreated acini: no effect
Isolated mouse acini [1]; physiologic cerulein (0.1 nM) or carbachol (1 μM)
  effect on acini treated with physiologic stimulation: no effect
Isolated mouse acini [1]; renalase 25 μg/mL, cerulein 0.1 nM or 100 nM, 30 minutes
  trypsinogen activation in acini from renalase knockout (KO) mice: reduced
Isolated mouse acini [2]
  injury of acini in vitro (MTT accumulation, LDH release): reduce
WT mice
  individual and aggregate histologic scores of pancreatitis: significantly decreased injury; also recorded: significantly less
PMCA [3]
  baseline Ca2+ levels: did not change
PMCA [3]; 10 nM angiotensin IV, Ca2+-free and Na+-free medium, cyclopiazonic acid
  rate of Ca2+ efflux: increased
PMCA [4]
  baseline Ca2+ levels: did not change
PMCA [4]; 100 nM cerulein, Ca2+-free medium, cyclopiazonic acid
  rate of Ca2+ efflux: increased
p38 MAPK
  p38 phosphorylation: rapidly increased
ERK
  ERK phosphorylation: rapidly increased
mice
  ischemic acute kidney injury (AKI): significantly attenuates; also recorded: protects mice against ischemic AKI
Renalase KO mice
  activating MAPK signaling in renalase KO mice: neither renalase nor RP-220 is effective
  protecting renalase KO mice against mild or severe ischemic AKI: neither renalase nor RP-220 is effective
[5]; rodents, Xu et al., 2005, Milani et al., 2011
  blood pressure: decreases blood pressure
[5]; wild type (WT) mice
  plasma catecholamines: lowers
  systemic blood pressure: lowers
